As a reminder, the Kd is the equilibrium constant for the complex coming apart. A higher Kd goes with lower affinity.

Substitutions are numbered along the chain they refer to.

B1: BIIB-9-622 (antibody, V domains shown)
VH: QVQLVQSGAEVKKPGASVKVSCKASGYTFTSYYMHWVRQAPGQGLEWMGIINPSGGSTSYAQKFQGRVTMTRDTSTSTVYMELSSLRSEDTAVYYCARDGATTVSYLSFDIWGQGTMVTVSS
VL: EIVMTQSPATLSVSPGERATLSCRASQSVSSSLAWYQQKPGQAPRLLIYGASTRATGIPARFSGSGSGTEFTLTISSLQSEDFAVYYCQQHSTWPPTFGGGTKVEIK
B2: BIIB-9-1285 (antibody, V domains shown)
VH: B1 VH with H35V, D99V, G100P, A101T, T102Y, T103R, V104Y, S108A
VL: B1 VL with S32N, H91A, T93N, W94F
B3: BIIB-9-477 (antibody, V domains shown)
VH: EVQLLESGGGLVQPGGSLRLSCAASGFTFSNYAMSWVRQAPGKGLEWVSAISGSGGSTYYADSVKGRFTISRDNSKNTLYLQMNSLRAEDTAVYYCARGGVYSSSWMRFWGQGTLVTVSS
VL: B1 VL with Y49F, H91D, S92V, T93N, P96I
B4: BIIB-9-564 (antibody, V domains shown)
VH: QVQLQESGPGLVKPSETLSLTCAVSGYSISSGYYWAWIRQPPGKGLEWIGSIYHSGSTYYNPSLKSRVTISVDTSKNQFSLKLSSVTAADTAVYYCARDPGYSWEYFDYWGQGTLVTVSS
VL: DIQMTQSPSSLSASVGDRVTITCRASQSISSYLNWYQQKPGKAPKLLIYAASSLQSGVPSRFSGSGSGTDFTLTISSLQPEDFATYYCQQSVAVPPTFGGGTKVEIK
B5: BIIB-9-578 (antibody, V domains shown)
VH: QLQLQESGPGLVKPSETLSLTCTVSGGSISSSSYYWGWIRQPPGKGLEWIGSISYSGSTYYNPSLKSRVTISVDTSKNQFSLKLSSVTAADTAVYYCARDKYQDYSFDIWGQGTMVTVSS
VL: B4 VL with L11V, S28G, S30D, Y32W, N34A, S91A, V92N, A93F, V94L, P96F
B6: BIIB-9-558 (antibody, V domains shown)
VH: EVQLVESGGGLVKPGGSLRLSCAASGFTFSSYSMNWVRQAPGKGLEWVSSISSSSSYIYYADSVKGRFTISRDNAKNSLYLQMNSLRAEDTAVYYCARSYGYGYHDFDLWGRGTLVTVSS
VL: DIQMTQSPSTLSASVGDRVTITCRASQSIGSWLAWYQQKPGKAPKLLIYKASSLESGVPSRFSGSGSGTEFTLTISSLQPDDFATYYCQQAGSYSFTFGGGTKVEIK
B7: BIIB-9-568 (antibody, V domains shown)
VH: QLQLQESGPGLVKPSETLSLTCTVSGGSISSSSYYWGWIRQPPGKGLEWIGSIYYSGSTYYNPSLKSRVTISVDTSKNQFSLKLSSVTAADTAVYYCARDLGYAATYFDLWGRGTLVTVSS
VL: DIQMTQSPSSLSASVGDRVTITCQASQDISNYLNWYQQKPGKAPKLLIYDASNLETGVPSRFSGSGSGTDFTFTISSLQPEDIATYYCQQYDDYLTFGGGTKVEIK
B8: BIIB-9-1276 (antibody, V domains shown)
VH: B7 VH with L101V, Y103R, A104T, A105Y, T106E, Y107L, L110I, R113Q, L116M
VL: B4 VL with L11V, S28G, Y32W, N34A, S91G, V92N, A93S, V94F, P96I
B9: BIIB-9-608 (antibody, V domains shown)
VH: QLQLQESGPGLVKPSETLSLTCTVSGGSISSSSYYWGWIRQPPGKGLEWIGSIYYSGSTYYNPSLKSRVTISVDTSKNQFSLKLSSVTAADTAVYYCARDRLETSEAGMDVWGQGTTVTVSS
VL: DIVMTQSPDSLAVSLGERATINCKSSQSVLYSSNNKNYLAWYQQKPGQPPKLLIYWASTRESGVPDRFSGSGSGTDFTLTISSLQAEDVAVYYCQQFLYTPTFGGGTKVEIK

The target in the assay is free FIXa (activated Factor IX) (UniProt P00740 47-191; P00740 227-461). Put plainly: BLI.
Take B1: the affinity, expressed as Kd, was 18 nM.

Regarding B2, the affinity, expressed as Kd, was 60.2 nM.

As for B3, the Kd was found to be 8.63 nM.

B4 showed a Kd of 17.4 nM.

In the case of B5, the Kd stood at 4.91 nM.

Turning to B6, binding was characterised by a dissociation constant (Kd) of 1.1 nM.

In the case of B7, binding was put at a Kd of 5.5 nM.

The molecule B8 gave an equilibrium dissociation constant (Kd) of 32.4 nM.

Take B9: binding was put at a Kd of 11.4 nM.

For the origin of these results see patent publication US20230192896A1 (published 2023).
